According to US20050124794A1, “Cell surface tropomyosin as a target of angiogenesis inhibition” (priority 2002, published 2005):
Several values for one entry are separate records, joined by “and”; a condition that tells them apart may be missing. Equal entries are not always repeated. Entries after “also recorded” stand apart in the source; their conditions may differ.

How the values were obtained:
[1] = system: proliferating ECs; test: Binding of biotin-HKa to ECs; parameters: species or system human; conditions: Zn2+-dependent (10 μM Zn2+), nonlinear regression, read-out: Kd of specific binding of HKa to proliferating ECs
Protocol: Binding of HKa to ECs and purified Tpm. Binding of HKa to ECs was measured as described by Hasan, A A et al. (1995) J. Biol. Chem. 270:19256-19261. Briefly, 3×10^4 HLVEC/ml were cultured in 96-well microplates, then washed and incubated with increasing concentrations of biotin-HKa for two hours, at 4° C. After brief washing, cells were incubated sequentially with a 1:750 dilution of streptavidin peroxidase and the peroxidase substrate, turbo-TMB (Pierce), prior to measurement of A490. Absolute amounts of bound HKa were determined by comparison of A490 values with a standard curve prepared using known amounts of biotin-HKa Binding was measured in the presence (to determine total binding) and absence (to determine non-specific binding) of 10 μM Zn^2+, and specific binding defined as the difference between total and non-specific binding (van Iwaarden, F et al. (1988) J. Biol. Chem. 263:4698-4703). The dissociation constant (Kd) was determined by fitting the saturation isotherm by nonlinear regression using the Prism software program (GraphPad, San Diego, Calif.).
In selected experiments, the ability of mAb TM-311 to inhibit the binding of HKa to cells was assessed by incubating biotin-HKa with ECs in the presence of increasing concentrations of antibody. […]

[2] = target: T1, chicken gizzard Tpm (Gallus gallus, UniProt P19352); test: Binding of HKa to purified Tpm immobilized in 96 well microplates; conditions: biotin-HKa, Zn2+-dependent (10 μM Zn2+), nonlinear regression; read-out: Kd of binding of HKa to purified Tpm
T1 construct: purchased Sigma; host or cells: chicken gizzard (tissue-derived, as the name says)
Protocol: To measure the binding of HKa to purified Tpm, 96 well microplates were coated with 20 μg/ml of chicken gizzard Tpm (Sigma), or bovine serum albumin (BSA), as a control. Wells were then blocked by incubation with phosphate buffered saline containing 5% nonfat milk, and incubated with increasing concentrations of HKa (0.01-20 nM) for 2 hours. Specifically-bound HKa was quantitated as described for cell binding assays (van Iwaarden et al., supra, and by assessing the ability of a 100-fold molar excess of unlabeled HKa to compete with biotin-HKa for binding.
In selected experiments, the ability of mAb TM-311 and recombinant HKa D5 to inhibit the binding of biotin-HKa to Tpm was assessed. These studies allowed determination of the Kd for binding of HKa D5 to Tpm using the equation: Kd (D5)=IC50/(1+[HKa]/Kd (HKa)) where IC50 is the concentration of HKa D5 that inhibited HKa binding by 50%, and Kd(HKa) is the Kd for binding of HKa to Tpm.

[3] = target: T1, chicken gizzard Tpm; test: Binding to immobilized Tpm in a 96 well plate (biotin-HKa competition or direct binding); conditions: plate coated with 200 ng chicken gizzard Tpm, 10 μM ZnCl2
Protocol: Plates are coated at room temperature with chicken gizzard Tpm (Sigma) in Tris buffer-saline (TBS) (200 ng/well). After incubation for 2 hours, wells are washed with TBS, then 1% BSA/TBS/Tween-20 is added to each well and incubate at 37° C. for two hours. HKa (Enzyme Laboratories) that had been previously biotinylated with EZ-Link (Pierce) according to the manufacturers instructions, is added to the plate at a concentration of 10 nM together with ZnCl2 (10 μM) and the appropriate concentration of the protein, domain or peptide competitor. The plates are incubated at room temperature and then washed with TBS/Tween-20. Avidin-HRP is added, incubated for 20 minutes at room temperature, washed with TBS/Tween-20 and the chromogenic substrate is added. The reaction is stopped with sulfuric acid and the plate read at 490 nm.
The IC50 for the displacement of biotinylated-HKa for the peptides shown in Table 5 was determined as follows: 10 nM biotin-HKa is added to a 96 well plate previously coated with 200 ng of chicken gizzard Tpm in the presence of 10 μM ZnCl2. Increasing amounts of the peptides are added to the wells. The remaining biotin-HKa bound to Tpm was detected using avidin-HRP and a chromogenic substrate. A Kd was determined by non-linear regression analysis of the empirical data. The effect on the Matrigel Plug assay was determined as follows: Matrigel (0.5 mL) containing 400 ng/ml of bFGF, 50 μg/ml heparin with or without the peptide (300 μM) or saline buffer are injected in the flanks of a mouse. After five days, the plugs are removed and the plugs scanned.
The N-terminus of the pentapeptide HHPHG has been derivatized (capped) in an attempt to increase the pentapeptides' affinity to Tpm by increasing productive molecular contacts (or interactions). […] The IC50 for the displacement of biotinylated-HKa for the capped peptides shown in the table was determined as follows: 10 nM biotin-HKa was added to a 96 well plate previously coated with 200 ng of chicken gizzard Tpm in the presence of 10 μM ZnCl2. Increasing amounts of the peptides were added to the wells. The remaining biotin-HKa bound to Tpm was detected using avidin-HRP and a chromogenic substrate. A Kd was determined by non-linear regression analysis of the empirical data

[4] = system: HUVEC; test: EC proliferation assay (growth factor-induced); format: cell-based, human; conditions: bFGF 10 ng/ml; 20 nM HKa, 60 nM HKa domain 5
Protocol: EC proliferation assays. The effect of HKa on ECs in the absence or presence of mAb TM-311 was initially assessed using a proliferation assay, as described in Zhang et al., supra. Relative numbers of cells remaining in each well of a 96 well microplate after incubation for 48 hours in the absence or presence of HKa were determined using the Aqueous® cell proliferation assay (Promega, Madison, Wis.). Results are presented as the percent inhibition of bFGF-induced EC proliferation, which essentially reflects the extent of HKa-induced EC apoptosis. Though bFGF was used as the EC mitogen in most studies of the studies described herein, identical results were obtained using VEGF.

[5] = system: proliferating ECs; test: Assessment of EC apoptosis (DAPI, TUNEL, DNA cleavage); format: cell-based, human
Protocol: Assessment of EC apoptosis. The effect of TM-311 on HKa- or HKa D5-induced EC apoptosis was determined using several methods. First, staining of control or HKa exposed ECs using 4′, 6′-diamidino-2-phenylindole dihydrochloride (DAPI) (Molecular Probes, Eugene Oreg.) was employed to highlight apoptosis-associated changes in nuclear morphology. Second, apoptosis was assessed by TUNEL staining, using the Apo-Direct kit (Pharmingen, San Diego, Calif.). Cells were counterstained with propidium iodide to define all nuclei, and the percentage of apoptotic CUNEL positive) nuclei determined by manual counting. Finally, to assess endothelial apoptosis by endonucleolytic cleavage of DNA, EC DNA was isolated and separated using 0.8% agarose gel electrophoresis. Gels were stained with ethidium bromide, and DNA visualized using UV light.

[6] = system: bFGF-induced angiogenesis in the chick chorioallantoic membrane; test: Chick chorioallantoic membrane (CAM) assay; format: in vivo
Protocol: This assay is performed essentially as described by Nguyen et al (Microvascular Res. 47:31-40 (1994)). A mesh containing either angiogenic factors (bFGF) or tumor cells plus inhibitors is placed onto the CAM of an 8-day old chick embryo and the CAM observed for 3-9 days after implantation of the sample. Angiogenesis is quantitated by determining the percentage of squares in the mesh which contain blood vessels.
Chick chorioallantoic membrane assay. […] Three day-old fertilized White Leghorn chicken eggs were cracked in sterile Petri dishes. Embryos were cultured at 37° C., under 4% CO2, until day 7, at which time a 3.0 mm filter disc containing either 30 ng bFGF (positive control), 30 ng bFGF and 10 μg HKa or 30 ng bFGF, 10 μg HKa and 20 μg of mAb TM-311 was placed on the CAM. Each experimental condition was tested in at least 6 eggs. On day 10, embryos were photographed using a SPOT digital camera Angiogenesis was quantitated by counting the number of neovessels in direct contact with the filter disc.

T1 sequence (P19352 1-284 isoform P19352-2): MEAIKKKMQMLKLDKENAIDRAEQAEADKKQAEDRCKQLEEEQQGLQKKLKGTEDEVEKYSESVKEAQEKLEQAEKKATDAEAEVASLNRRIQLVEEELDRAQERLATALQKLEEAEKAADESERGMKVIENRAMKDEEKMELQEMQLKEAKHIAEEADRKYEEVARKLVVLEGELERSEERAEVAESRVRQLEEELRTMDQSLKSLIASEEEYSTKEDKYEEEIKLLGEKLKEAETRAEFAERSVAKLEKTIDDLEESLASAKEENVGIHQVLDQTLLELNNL
T1 sequence (P04268 1-284 isoform P04268-2 F73S/I172L/T199L/N203E/L204A partner): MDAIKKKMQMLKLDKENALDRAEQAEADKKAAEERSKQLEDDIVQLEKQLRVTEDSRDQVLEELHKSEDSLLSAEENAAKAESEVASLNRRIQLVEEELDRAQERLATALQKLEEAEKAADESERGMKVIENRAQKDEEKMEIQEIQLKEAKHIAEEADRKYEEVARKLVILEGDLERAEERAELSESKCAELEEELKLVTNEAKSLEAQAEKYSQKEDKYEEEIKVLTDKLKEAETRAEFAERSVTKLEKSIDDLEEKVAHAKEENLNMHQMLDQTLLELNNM

Kd [2]: ~2.6 nM and ~2.5 nM
Kd [3]: ~1 nM
B1: HKa: Two-chain high molecular weight kininogen, purchased from Enzyme Research Laboratories (protein)
chain 1: QESQSEEIDCNDKDLFKAVDAALKKYNSQNQSNNQFVLYRITEATKTVGSDTFYSFKYEIKEGDCPVQSGKTWQDCEYKDAAKAATGECTATVGKRSSTKFSVATQTCQITPAEGPVVTAQYDCLGCVHPISTQSPDLEPILRHGIQYFNNNTQHSSLFMLNEVKRAQRQVVAGLNFRITYSIVQTNCSKENFLFLTPDCKSLWNGDTGECTDNAYIDIQLRIASFSQNCDIYPGKDFVQPPTKICVGCPRDIPTNSPELEETLTHTITKLNAENNATFYFKIDNVKKARVQVVAGKKYFIDFVARETTCSKESNEELTESCETKKLGQSLDCNAEVYVVPWEKKIYPTVNCQPLGMISLMK
chain 2: SSRIGEIKEETTVSPPHTSMAPAQDEERDSGKEQGHTRRHDWGHEKQRKHNLGHGHKHERDQGHGHQRGHGLGHGHEQQHGLGHGHKFKLDDDLEHQGGHVLDHGHKHKHGHGHGKHKNKGKKNGKHNGWKTEHLASSSEDSTTPSAQTQEKTEGPTPIPSLAKPGVTVTFSDFQDSDLIATMMPPISPAPIQSDDDWIPDIQTDPNGLSFNPISDFPDTTSPKCPGRPWKSVSEINPTTQMKESYYFDLTDGLS
Kd [1]: ~2.5 nM and ~2.6 nM
inhibition of bFGF-induced EC proliferation (in words) [4]: inhibition
induction of EC apoptosis (in words) [5]: induction of EC apoptosis
inhibition of angiogenesis induced by bFGF-containing filter discs, vessel counts ([6]; 30 ng bFGF, 10 μg HKa): about 85%
inhibition of bFGF-induced angiogenesis in the CAM (in words) ([6]; in vivo): inhibited basic FGF-induced angiogenesis; also recorded: antiangiogenic activity
